# Results taken from the nanobody polyreactivity screen of Harvey et al. (2022).
# Assay: yeast display, Sf9 membrane polyspecificity reagent, FACS + sequencing; frameworks hold sequencing errors
# How it was run: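 Sorting gates, low and high (top ~1%), were placed on anti-HA fluorescence to track expression and on streptavidin fluorescence to track reagent binding. A clone's polyreactivity label is taken from the gate it came out of. The reagent was 10% biotinylated, detergent-solubilized Sf9 membrane, applied for 1 hour at 4 °C to galactose-induced yeast display cells.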
row,Sequence,polyreactivity (PSR sort gate)
1,QVQLVESGGVLVQAGGSLRLSCAASGITFEYYAMGWYRQAPGKERELVAAISWSGSSTYYADSVKGRFTISRDNAKNTVYLQMNSLKPEDTAVYYCNADSAWWASDDQYDYWGQGTQVTVSS,low polyreactivity
2,QVHLVESGGGLVQAGGSLRLSCAASGSIFYIYAMGWYRQAPGKERELVAGITSGGGTYYADSVKGRFTISRDNAKNTVYLQMNSLKPEDTAVYYCAADYLYDYDYWGQGTQVTVSS,high polyreactivity
3,QVQLVESGGGLVQAGGSLRLSCAASGRIFSKYAMGLYRQAPEKERELVAAISGTGGSTYYADSVKGRFTISRDNSKNTVYLHMNSLKTEDTAVYYCAAEWYGRMYYWGQGTQVTVSS,high polyreactivity
4,QVQLLETGGGLVQAGRSHRLSCAASGLTFEDYAMGWYRQAPGKESELVAAITYSGGSTYYADSVKGRFTISRDNAKNSVYLQMMSLKPEDTAVSVCAAVSTLRPSWKRYYYWGQGNQVTVSS,high polyreactivity
5,QVQLVESGGGLVQAGGSLRLSCAASGRTLIYNVMGWYRQAPGKERELVAAITNGGSTYYADSVKGRFTISRDNAKNTVYLQMNSLKPEDTAVYYCATRYGKTYWGQGNQVTVSS,high polyreactivity
6,QVQLVESGGGLFQAGGSLRLSCAASGRTFTWYAMGWYRQAPGKERELVAAISFSGGSTYYADSVKGRFTISRDNAKNTVYLQMNSLKPEDTAVYYCARPSGDAWEGPRMDYWGQGTQVTVSS,low polyreactivity
7,QVQLVESGGGLVQAGGSLRLSCAASGLTFTGNAMGWYRQAPGKEREFVAAIRWSAGSTYYADSVKGRFTISRDNAKNTVYLQMNSLKPEDTAVYYCNAALNVSGHYPNDYWGQGTQVNVSS,low polyreactivity
8,QVQLVESGGGLVQAGGSLRLSCAASGRIFSFNAMGWYRQAPGKERELVAGITYGGNTYYADSVKGRFTISRDNAKNTVYLQMNSLKPEDPAVYYCAAVRGGRHDYWGQGTQVTVSS,low polyreactivity
9,QVQLVESGGGLVQAGGSLRLSCAASGFIFWLYAMGWYIQAPGKERELVASINWSGGDTYYADSVKGRFTISRDNAKNTFYLQMNSLKPEDTAVYYCTAKVLDSKSSFDYWGKGTQVTVSS,low polyreactivity
10,QVQLVESGGGLVQAGGSLRLSCAASGFIFGSNAMGWYRQAPGKERELVATITKRGGTTYYADSVKGRFTISRDNAKNTVYLQMNSLKPEDTAVYYCNRSGPGFYSTRFNYWGQGTQVTVSS,high polyreactivity
11,QVQHVESGGGLVQAGGSLRLSCAASGFTFARYAMGWYRHAPGKERELVASISSSGDRTNYADSVKGRFTISRDNAKITVYLQMYSLKPEDTAVYYCNADFGYGWYLRYDYWGQGTQVTVSS,high polyreactivity
12,QVQLVESGGGLVQAGGSLRLSCAASGFTFRYYAMGWSRQAPGKERELVARITSGGSTNYADSVKGRFTISRDNAKNTVYLQMNSLKPEDTAVYYCAASPYRYWRMYSWGQGTQVTVSS,high polyreactivity
13,QVQLVESGGGLVQAGGSLRLSCAASGFTFRGYVMGGYRQAPGKERELVAAITNIGTSTYYAHSVKGRFTISRDNAKNTVYVQMNSLKPEDTGVFFCAARLSTKFYYWGQVTQVTVSS,low polyreactivity
14,QVQLVESGGGLVQAGGSLRLSCAASGRTFLYNAMGWYREAPGTERELVAAISTNGSSTYYADSVKGRFTISRDNAKNTVYLQMNSLKPEDTAVYYCAAQPPLDYEFPYRYGYWGQGTQVTVSS,low polyreactivity
15,QVQLVESGGGLVQAGGSLRLTCAASGNTFSPNAMGWYRHAPGKERELVAAIDSRDGITYYADSVKGRFTISRDNAKNTVYLQMNSLKPEDTAVYYCAADEWYGESNFWGQGTQVTVSS,low polyreactivity
16,QVQLVESGGGLVQAGGSLRLSCAASGSIFSWYAMGWYRQAPGKERELVAAISWSSGSTYYADSVKGRFTISRDNAKNTVYLQMNSLKPEDTAVYYCAADATYLGWYELYYWGQGTQVTVSS,high polyreactivity
17,QVQLVESGGGLVQAGGSLRLSCAASGSTFYKYAMGWYRQAPGKERELVASISRSGGSTSYADSVKGRFTISRDNAKNTVYLHMNSLIPEDTAVYYCAATWRQHPGSMGYWGQGTQVTVSS,high polyreactivity
18,QVQLVESGGGLVQAGGSLRLSCAASGFTFPFYTMGWYRQAPGKERELVAAISRSGASTFYADSVKGRFTISRDNAKNTGYLQMNSLKPEDTAVYYCAGRRGYAPYEYWGQGTQVTVSS,high polyreactivity
19,QVQLVESGAGLFQAGGRLRLSCAASGRTFQVYAMAWYRHAPGTERELVAAIDLGGGSTYYADSVKGRFTISRDNAKNTVYLQMNSLKQEDTAVYYCAADVGLRFDYWGQGTQVTVSS,high polyreactivity
20,QVQLVESGGGLVQAGGSLRLSCAASGISFLDNALGWYRQATGKERELVAAYADSVKGRFTISRDNAKNTVYLQMNSLKPEDTAVYYCNAGWIRNYGFSLVTYDYWGQGTQVTVSS,low polyreactivity
21,QVQLVESGGGLVQAGGSLRLSCAASGSIFKRYAMGWYRQAPGKERELVAAISRRGASTYYADSVKGRFTISRDNAKNTVYLQMNSLKPEDTAVYYCNAYLPRQGPSGRPRSQYDSWGQGTQVTVSS,high polyreactivity
22,QVQLVESGGGLVQAGGSLRLSCAASGFTIYRYAMGWYRQAPGKERELVASITWSGGSTYYADSVKGRFTISRDNAKNTVYLQMNSLKPEDTAVYYCNALFSWGTGYGSSYGYWGQGTQVTVSS,high polyreactivity

row,Sequence,polyreactivity (PSR sort gate)
1,QVQLVESGGGLVQAGGSLRLSCAASGYTFPLYAMGWYTQAPGKERELVADINIGGASTYYADSVKGRFTISRDNAKNTVYLQMNSLKPEDTAVYDCAKEYYDGYFPTFEYDYWGQGTQVTVSS,low polyreactivity
2,QVQLVESGGGLVQAGGSLRLSCAASGSIFLVYAMGWYRQAPGKERELVAASDWSDTDTYYADSVKGRFTISRDNAKNTFYLQMNSLKPEDTAVYYCAADHVGVDFEYWGQGTQVTVSS,low polyreactivity
3,QVQLQESGGGLVQAGDSQRLSCAASGNSFRFTHMGWYRQAPGKERELVAASNAGSTTYYADSVKGRFTISRDNAKNTVYLQMKSLKPEDTAVYYCAVYYLGSGTFGYWGQGAQVTVSS,high polyreactivity
4,QVQLVESGGGLVQAGGSLRLSCAASGSIFTLYAMGWYRQAPGKERELVAAITRSGGSTYYADSVKGRFTISRDNAKNTVYLQMNSLKPEDTAVYYCNKATAYGLDYWGQATQVTVSS,high polyreactivity
5,QVQLVESGGGLVQAGGSLRVSCAASGSIFPDNAMGWYRQAPGKERELVAAITRGGSTYYADSVKGRFTISRDNAKNTVYLQMNSLKPEDTAVYYCAARRRYLWSYDYWGQGTQVTVSS,high polyreactivity
6,QVQLVESGGGLVQAGGSLRLSCAASGFTFLRYAMGWYRQAPGKERELVAGITSRGASTYYADSVKGRFTISRDNAKTTVYLQINSLKPEDTAVYYCAADGSHTRYRYDYWGQGTQVTVSS,high polyreactivity
7,QVQLVESGGGLVQAGGSLRLSCAASGIIFYNNAMGWYRKAPGKERELVADITSGNTNYADSVKGRFTISRDNAKNTVYLQMNSLKPEDTAVYYCNAEDDYTYDRSFGGYKYDYWGQGTQVTVSS,low polyreactivity
8,QVQLVESGGGLVQAGGSLRLSCAASGRIFWYYAMGWYRQAPGKERELVATISSRSGSTYYADSVKGRFTISRDNAKNTVNLQMNSLKPEDTAVYYCAAGTPYYLGYRHNYWGQGTQVTVSS,high polyreactivity
9,QVQLEESGGGLVQAGGSLRLSCAASGSIIDYYAMGWYRQAPGKERELVADITVTGDGTYYADSVKGRFTISRDNAKNTVYLQMNSLKPEDTAVYYCAADFWLVSFQWDFEYDYWGQGTQVTVSS,low polyreactivity
10,QVQLVESGGGLVQAGGSLRLTCAASGFIFGTYAMGWYRLSPGKERELVAAISSGGSTYYAYSVKGRFTISRDNAKYTVYLQMNSLKPEDTAVYYCAKEGGTYRIFNYWGQGTQVTLSS,low polyreactivity
11,QVQLVESGGGLVQAGGSLRLSCAASGFIFTYYAMGWYRQAPGKERELVAAITVRGGSTYYADSVKGRFTISRDNAKNTVYLQMNSLKPEDTGVYYCNTVHGLWRRYNYWGQGTQVTVSS,high polyreactivity
12,QDQLVESGGGLVQAGGSLRLSCAASGRIFRPNTMGWYRQAPGKERELVASISLSAGSTYYADSVKGRFTISRDNAKNTVYLQMNSLKPEDTAVYYCNATYLSWYRYKYNYWGQGTQVTVSS,low polyreactivity
13,QVQLVESGGGLVQAGGSLRLSCAASGIIFYDYAMGWYRQAPGKERELVAAITSSGGSTYYADSVKGRFTISRDNAKNTVYLQMNRLKPEDTAVYYCAAATRGSGRRYDYWGQGTQVTVSS,high polyreactivity
14,QVQLVESGGGLVQAGGSLRLSCAASGSTFGWNAMGWYRQAPGKERELVAAISSSGGITYYADSVKGRFTISRDNAKNTVYLQMNSLKPEDTAVYYCAAERDDDWVNYWGQGTQVTVSS,low polyreactivity
15,QVQLVESGGGLVQAGGSLRLSCAASGRIFGLYAMGWYRQAPGKERELVAAITKRGGTTYYADSVKVRFTISRDNAKNTVYLQMKSLKPEDTAVYYCAAKRSVLRTADYDYWGQGTQVTVSS,high polyreactivity
16,QVQLVESGGGLDQAGGSLRLSCAPSGSTFVGYALGWYRQAPGKERELVAAITRGGGSTYYADSVKGRFTISRDNAKNTVYLQMNSLKPEDTAVYYCAAYQHPGLRTSYEYWGQGTQVTVSS,low polyreactivity
17,QVHLVDSGGGLVQAGGSLSLRCAASRRSFVPYAMGWYSQGPGKEREFLADITWSTCTSTYYADSEKGRFTISRDNAKNTVYLHMNSLKPEDTAVYYCAVDIWWPNWYYIYWGQGTQVTLSS,low polyreactivity
18,QVQLVESGGGLVQAGGSLRLSCAASGRIFVGNAMGWYRQAPGKERELVAAISRSGGRTYYADSVKGRFTISRDNAKNSVYLQMNSLKPEDTAVYYCAAVSLSGRYGDYDYWGQGTQVTVSS,high polyreactivity
19,QVQLVESGGGLVQAGGSLRLSCAACGRTLRTYGMGWYRQAPGKERELVATITRRGDSTYYADSVKGRFTISRDNAKNTVYLQMNSLKPEDTAVYYSNTASYGRHQFRKSSKMDYWGQGTQVTVSS,high polyreactivity
20,QVQLVESGGGLVQAGGSLRLSSAASGFVCNAMGWYRQAPGKERDLVAAIDSSGGNTYYADSVKGRFTISRDNAKNTVYLQMNSMKPEDTAVYYCAARYVERHTDYYYWGQGTQVTVSS,low polyreactivity
21,QVQLVESGGGLVQAGGSLRLSCAASGSTFPLYAMGRYRQAPGKERELVAAITSGGGNTYYADSLKGRFTISRDNAKNTVYLQMNSLKPEDTAVYYCAAVGGYKSYYSYEYDYWGQGTQVTVSS,low polyreactivity
